Literature values in article PMC9528458.

Biological target: Axin DAX (Homo sapiens) (UniProt O15169)
Sequence (O15169 780-862): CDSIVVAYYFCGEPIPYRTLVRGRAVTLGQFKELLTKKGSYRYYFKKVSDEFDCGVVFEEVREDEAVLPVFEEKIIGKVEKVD

Sequence of Dishevelled DIX (O14641 8-96): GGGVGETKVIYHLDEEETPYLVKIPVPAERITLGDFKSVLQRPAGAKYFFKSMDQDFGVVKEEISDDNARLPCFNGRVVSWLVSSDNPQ

Dishevelled DIX (from UniProt O14641)
Kd: 15 µM
